From publication PMC4364296 (Molecular microbiology, 2014)
Numbering of substitutions follows the chain as printed. Where two headings read alike, the source gives them in different places. Blank lines part the entries; values can stand above or below the binder they belong to.

T1: FtsZ-L178E (E. coli, UniProt P0A9A6 1-383, L178E)
T1 sequence (looked up): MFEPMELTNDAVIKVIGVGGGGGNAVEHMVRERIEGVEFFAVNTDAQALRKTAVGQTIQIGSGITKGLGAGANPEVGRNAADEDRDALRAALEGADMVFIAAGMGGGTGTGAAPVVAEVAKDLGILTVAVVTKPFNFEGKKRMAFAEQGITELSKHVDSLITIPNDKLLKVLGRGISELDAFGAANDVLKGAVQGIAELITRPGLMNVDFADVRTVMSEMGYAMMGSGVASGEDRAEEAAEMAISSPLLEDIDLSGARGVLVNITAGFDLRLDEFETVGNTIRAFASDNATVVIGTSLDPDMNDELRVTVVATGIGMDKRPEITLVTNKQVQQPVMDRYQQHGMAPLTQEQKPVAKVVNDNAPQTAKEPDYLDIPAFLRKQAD

T2: His-FtsZ (E. coli, UniProt P0A9A6 1-383)
T2 sequence (looked up): T1 sequence (looked up) with E178L

B1: FtsZ-WT (natural protein, E. coli, UniProt P0A9A6 1-383, looked up)
chain: T1 sequence (looked up) with E178L
B2: His-SlmA/SBS (natural protein, E. coli, UniProt P0C093 1-198, looked up)
chain: MAEKQTAKRNRREEILQSLALMLESSDGSQRITTAKLAASVGVSEAALYRHFPSKTRMFDSLIEFIEDSLITRINLILKDEKDTTARLRLIVLLLLGFGERNPGLTRILTGHALMFEQDRLQGRINQLFERIEAQLRQVLREKRMREGEGYTTDETLLASQILAFCEGMLSRFVRSEFKYRPTDDFDARWPLIAAQLQ
B3: His-ZipA^185–328 (domain or fragment)
chain: not shown
B4: ZipA^185–328 (untagged) (domain or fragment)
chain: not shown
B5: MinDΔ10-linker-CCTP (other, E. coli, UniProt P0AEZ3 1-260, looked up)
chain: MARIIVVTSGKGGVGKTTSSAAIATGLAQKGKKTVVIDFDIGLRNLDLIMGCERRVVYDFVNVIQGDATLNQALIKDKRTENLYILPASQTRDKDALTREGVAKVLDDLKAMDFEFIVCDSPAGIETGALMALYFADEAIITTNPEVSSVRDSDRILGILASKSRRAENGEEPIKEHLLLTRYNPGRVSRGDMLSMEDVLEILRIKLVGVIPEDQSVLRASNQGEPVILDINADAGKAYADTVERLLGEERPFRFIEEEKPEITLVTNKQVQQPVMDRYQQHGMAPLTQEQKPVAKVVNDNAPQTAKEPDYLDIPAFLRKQAD
B6: FtsZ-360 (domain or fragment, E. coli, UniProt P0A9A6 1-360, looked up)
chain: MFEPMELTNDAVIKVIGVGGGGGNAVEHMVRERIEGVEFFAVNTDAQALRKTAVGQTIQIGSGITKGLGAGANPEVGRNAADEDRDALRAALEGADMVFIAAGMGGGTGTGAAPVVAEVAKDLGILTVAVVTKPFNFEGKKRMAFAEQGITELSKHVDSLITIPNDKLLKVLGRGISLLDAFGAANDVLKGAVQGIAELITRPGLMNVDFADVRTVMSEMGYAMMGSGVASGEDRAEEAAEMAISSPLLEDIDLSGARGVLVNITAGFDLRLDEFETVGNTIRAFASDNATVVIGTSLDPDMNDELRVTVVATGIGMDKRPEITLVTNKQVQQPVMDRYQQHGMAPLTQEQKPVAKVVND

Columns and labels:
His-ZipA^185–328 [1] = molecular target: B3; experiment: BLI
[2] = molecular target: the molecule itself; experiment: sedimentation of polymers + electron microscopy
FtsZ-WT [3] = molecular target: B1; experiment: BLI
FtsZ-WT [4] = molecular target: B1; experiment: BLI; remark: listed apart in the source
FtsZ-L178E = molecular target: T1, FtsZ-L178E; experiment: BLI
FtsZ-WT [5] = molecular target: B1; experiment: BLI; remark: listed apart in the source
His-FtsZ = molecular target: T2, His-FtsZ; experiment: BLI
His-ZipA^185–328 [6] = molecular target: B3; experiment: BLI; remark: listed apart in the source
His-ZipA^185–328 [7] = molecular target: B3; experiment: BLI; remark: listed apart in the source

Kd (His-ZipA^185–328 [1]): 30.8 ± 4.7 µM
Binder: KEPDYLDIPAFLRKQAD (domain or fragment, E. coli, UniProt P0A9A6 367-383, looked up) [MalE-CCTP]

Kd (His-ZipA^185–328 [1]): 140 ± 22 µM
Binder: DYLDIPAFLRKQAD (peptide, UniProt P0A9A6 370-383, looked up) [CCTP (14 amino acids)]

Binder: B1
binding result [2]: binds

Binder: B2
binding result (FtsZ-WT [3]): binds

Binder: B3
Kd (FtsZ-WT [4]): 0.42 ± 0.1 µM
Kd (FtsZ-L178E): 5.3 ± 0.7 µM
Kd (FtsZ-WT [5]): 0.77 ± 0.1 µM

Binder: B4
Kd (His-FtsZ): 8.1 ± 1.3 µM

Binder: B5
Kd (His-ZipA^185–328 [6]): 11.7 ± 5.2 µM
Kd (His-ZipA^185–328 [7]): 1.4 ± 0.2 µM

Binder: B6
binding result [2]: binds
